In patent US20110300138A1 (published 2011):
Read-outs that look alike come from different tables or passages of the source.

Legend:
[1] = target: human TSH receptor (full length, wild type) expressed in CHO cells (human) (UniProt P16473); experiment: cell-based or functional assay
[2] = target: human TSH receptor (full length, wild type) expressed in CHO cells (human) (UniProt P16473); experiment: cell-based or functional assay; remark: listed apart in the source
[3] = target: human TSHR (wild type, full length) expressed in CHO cells (human) (UniProt P16473); experiment: cell-based or functional assay
[4] = target: human TSH receptor (full length, wild type) expressed in CHO cells (human) (UniProt P16473); experiment: cell-based or functional assay; remark: listed apart in the source
[5] = target: human TSHR (wild type, full length) expressed in CHO cells (human) (UniProt P16473); experiment: cell-based or functional assay; remark: listed apart in the source
[6] = target: human TSHR (thyroid stimulating hormone receptor) expressed in transfected CHO cells (human) (UniProt P16473); experiment: cell-based or functional assay
[7] = target: TSHR260-alkaline phosphatase (TSHR260-AP) (human) (UniProt P05187); experiment: TSHR260-AP bridge ELISA, full length TSHR on wells; 10 µg/mL, diluted in HBD
[8] = target: TSHR260-alkaline phosphatase (TSHR260-AP) (human) (UniProt P05187); experiment: TSHR260-AP bridge ELISA, full length TSHR on wells; 0.1 µg/mL, diluted in HBD
[9] = target: TSHR260-alkaline phosphatase (TSHR260-AP) (human) (UniProt P05187); experiment: TSHR260-AP bridge ELISA, full length TSHR on wells; 0.5 µg/mL, diluted in HBD
[10] = target: TSHR260-alkaline phosphatase (TSHR260-AP) (human) (UniProt P05187); experiment: TSHR260-AP bridge ELISA, full length TSHR on wells; 250 µg/mL, diluted in HBD
[11] = target: TSHR260-alkaline phosphatase (TSHR260-AP) (human) (UniProt P05187); experiment: TSHR260-AP bridge ELISA, full length TSHR on wells; 0.01 µg/mL, diluted in HBD
[12] = target: TSHR260-alkaline phosphatase (TSHR260-AP) (human) (UniProt P05187); experiment: TSHR260-AP bridge ELISA, full length TSHR on wells; 0.05 µg/mL, diluted in HBD
[13] = target: TSHR260-alkaline phosphatase (TSHR260-AP) (human) (UniProt P05187); experiment: TSHR260-AP bridge ELISA, full length TSHR on wells; 0.1 µg/mL, diluted in assay buffer
[14] = target: TSHR260-alkaline phosphatase (TSHR260-AP) (human) (UniProt P05187); experiment: TSHR260-AP bridge ELISA, full length TSHR on wells; 0.01 µg/mL, diluted in assay buffer
[15] = target: TSHR260-alkaline phosphatase (TSHR260-AP) (human) (UniProt P05187); experiment: TSHR260-AP bridge ELISA, full length TSHR on wells; 0.05 µg/mL, diluted in assay buffer
[16] = target: TSHR260-AP (human); experiment: TSHR260-AP bridge ELISA (full length TSHR on wells, TSHR260-AP in solution); IgG 1 µg/mL diluted in HBD serum
[17] = target: TSHR260-AP (human); experiment: TSHR260-AP bridge ELISA (full length TSHR on wells, TSHR260-AP in solution); IgG 0.1 µg/mL diluted in HBD serum
[18] = target: TSHR260-AP (human); experiment: TSHR260-AP bridge ELISA (full length TSHR on wells, TSHR260-AP in solution); IgG 0.5 µg/mL diluted in HBD serum
[19] = target: TSHR260-AP (human); experiment: TSHR260-AP bridge ELISA (full length TSHR on wells, TSHR260-AP in solution); IgG 250 µg/mL diluted in HBD serum
[20] = target: TSHR260-AP (human); experiment: TSHR260-AP bridge ELISA (full length TSHR on wells, TSHR260-AP in solution); IgG 0.01 µg/mL diluted in HBD serum
[21] = target: TSHR260-AP (human); experiment: TSHR260-AP bridge ELISA (full length TSHR on wells, TSHR260-AP in solution); IgG 0.1 µg/mL diluted in assay buffer
[22] = target: TSHR260-AP (human); experiment: TSHR260-AP bridge ELISA (full length TSHR on wells, TSHR260-AP in solution); IgG 250 µg/mL diluted in assay buffer
[23] = target: TSHR260-AP (human); experiment: TSHR260-AP bridge ELISA (full length TSHR on wells, TSHR260-AP in solution); IgG 0.01 µg/mL diluted in assay buffer

Sequence of M22 IgG (antibody) (VH): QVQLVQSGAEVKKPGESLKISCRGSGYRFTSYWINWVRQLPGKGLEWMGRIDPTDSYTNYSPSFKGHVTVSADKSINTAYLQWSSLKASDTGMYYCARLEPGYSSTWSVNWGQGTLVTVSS
Sequence of M22 IgG (antibody) (V domain): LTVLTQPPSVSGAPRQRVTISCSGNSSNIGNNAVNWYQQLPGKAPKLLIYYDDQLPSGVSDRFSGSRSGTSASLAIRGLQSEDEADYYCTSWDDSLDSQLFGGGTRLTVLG

9D33 IgG (antibody) was tested, and the % Inhibition; T7 serum + 100 µg/mL 9D33 IgG [1] was 93%, the % Inhibition; T8 serum + 100 µg/mL 9D33 IgG [1] was 95% and the % Inhibition; T9 serum + 100 µg/mL 9D33 IgG [1] was 87.2%. The Cyclic AMP concentration; 100 µg/mL 9D33 IgG alone [1] was 2.4 pmol/mL, the Cyclic AMP concentration; HBD + 100 µg/mL 9D33 IgG [1] was 5.4 pmol/mL and the Cyclic AMP concentration; T7 serum + 100 µg/mL 9D33 IgG [1] was 6.3 pmol/mL. The Cyclic AMP concentration; T8 serum + 100 µg/mL 9D33 IgG [1] was 4.3 pmol/mL, the Cyclic AMP concentration; T9 serum + 100 µg/mL 9D33 IgG [1] was 7.2 pmol/mL and the % Inhibition; T10 serum + 100 µg/mL 9D33 IgG [2] was 95.4%. The % Inhibition; T11 serum + 100 µg/mL 9D33 IgG [2] was 87.1%, the % Inhibition; T12 serum + 100 µg/mL 9D33 IgG [2] was 91.7% and the Cyclic AMP concentration; 100 µg/mL 9D33 IgG alone [2] was 1.9 pmol/mL. For the same substance, the Cyclic AMP concentration; HBD + 100 µg/mL 9D33 IgG [2] was 3.2 pmol/mL, the Cyclic AMP concentration; T10 serum + 100 µg/mL 9D33 IgG [2] was 2.6 pmol/mL and the Cyclic AMP concentration; T11 serum + 100 µg/mL 9D33 IgG [2] was 5.3 pmol/mL. The Cyclic AMP concentration; T12 serum + 100 µg/mL 9D33 IgG [2] was 3.6 pmol/mL, the % Inhibition of T13 serum stimulation; 100 µg/mL 9D33 IgG [3] was 92.2% and the % Inhibition of T14 serum stimulation; 100 µg/mL 9D33 IgG [3] was 89.7%. The % Inhibition of T15 serum stimulation; 100 µg/mL 9D33 IgG [3] was 92.4%, the Cyclic AMP concentration; 100 µg/mL 9D33 IgG alone [3] was 2.3 pmol/mL and the Cyclic AMP concentration; HBD + 100 µg/mL 9D33 IgG [3] was 3.3 pmol/mL. It also gave a Cyclic AMP concentration; T13 serum + 100 µg/mL 9D33 IgG [3] of 3.8 pmol/mL, a Cyclic AMP concentration; T14 serum + 100 µg/mL 9D33 IgG [3] of 2.8 pmol/mL and a Cyclic AMP concentration; T15 serum + 100 µg/mL 9D33 IgG [3] of 3.9 pmol/mL. The % Inhibition; T1 serum + 100 µg/mL 9D33 IgG [4] was 95.4%, the % Inhibition; T2 serum + 100 µg/mL 9D33 IgG [4] was 96.8% and the % Inhibition; T3 serum + 100 µg/mL 9D33 IgG [4] was 94.2%. For the same substance, the Cyclic AMP concentration; 100 µg/mL 9D33 IgG alone [4] was 2.1 pmol/mL, the Cyclic AMP concentration; HBD + 100 µg/mL 9D33 IgG [4] was 1.9 pmol/mL and the Cyclic AMP concentration; T1 serum + 100 µg/mL 9D33 IgG [4] was 4.6 pmol/mL. It also gave a Cyclic AMP concentration; T2 serum + 100 µg/mL 9D33 IgG [4] of 2 pmol/mL, a Cyclic AMP concentration; T3 serum + 100 µg/mL 9D33 IgG [4] of 3.7 pmol/mL and a % Inhibition of T8 serum stimulation; 0.01 µg/mL 9D33 IgG [5] of 12%. It also gave a % Inhibition of T8 serum stimulation; 0.1 µg/mL 9D33 IgG [5] of 56%, a % Inhibition of T8 serum stimulation; 1 µg/mL 9D33 IgG [5] of 91% and a % Inhibition of T8 serum stimulation; 10 µg/mL 9D33 IgG [5] of 93%. It also gave a % Inhibition of T8 serum stimulation; 100 µg/mL 9D33 IgG [5] of 93%, a Cyclic AMP concentration; 0.01 µg/mL 9D33 IgG + T8 [5] of 45.8 pmol/mL and a Cyclic AMP concentration; 0.1 µg/mL 9D33 IgG + T8 [5] of 22.9 pmol/mL. For the same substance, the Cyclic AMP concentration; 1 µg/mL 9D33 IgG + T8 [5] was 4.7 pmol/mL, the Cyclic AMP concentration; 10 µg/mL 9D33 IgG + T8 [5] was 3.7 pmol/mL and the Cyclic AMP concentration; 100 µg/mL 9D33 IgG + T8 [5] was 3.6 pmol/mL.

M22 IgG (antibody) gave a Cyclic AMP concentration at 0.3 ng/mL M22 IgG [4] of 2.36 pmol/mL, a Cyclic AMP concentration at 1 ng/mL M22 IgG [4] of 12 pmol/mL and a Cyclic AMP concentration at 3 ng/mL M22 IgG [4] of 24.6 pmol/mL. It also gave a Cyclic AMP concentration at 10 ng/mL M22 IgG [4] of 58.9 pmol/mL, a Cyclic AMP production concentration at 1 ng/mL M22 IgG [4] of 8.1 pmol/mL and a Cyclic AMP production concentration at 3 ng/mL M22 IgG [4] of 24.3 pmol/mL. It also gave a Cyclic AMP production concentration at 10 ng/mL M22 IgG [4] of 50.3 pmol/mL, a Cyclic AMP production concentration at 30 ng/mL M22 IgG [4] of 60.9 pmol/mL and a Cyclic AMP production concentration at 100 ng/mL M22 IgG [4] of 64.6 pmol/mL. For the same substance, the Cyclic AMP stimulating activity at 1 ng/mL M22 IgG, units/L (NIBSC 90/672) [4] was 0.3 units/L, the Cyclic AMP stimulating activity at 1 ng/mL M22 IgG, units/mg (NIBSC 90/672) [4] was 300 units/mg and the Cyclic AMP stimulating activity at 3 ng/mL M22 IgG, units/L (NIBSC 90/672) [4] was 0.8 units/L. For the same substance, the Cyclic AMP stimulating activity at 3 ng/mL M22 IgG, units/mg (NIBSC 90/672) [4] was 267 units/mg, the Cyclic AMP stimulating activity of M22 IgG, mean units/mg (NIBSC 90/672; mean of 1, 3 and 10 ng/mL) [4] was 286 units/mg and the Cyclic AMP concentration; 3 ng/mL M22 IgG [6] was 44.4 pmol/mL. For the same substance, the Mean absorbance at 405 nm (absorbance at 405 nm) [7] was 0.796, the Mean absorbance at 405 nm (absorbance at 405 nm) [8] was 0.365 and the Mean absorbance at 405 nm (absorbance at 405 nm) [9] was 0.657. For the same substance, the Mean absorbance at 405 nm (absorbance at 405 nm) [10] was 0.833, the Mean absorbance at 405 nm (absorbance at 405 nm) [11] was 0.03 and the Mean absorbance at 405 nm (absorbance at 405 nm) [12] was 0.204. For the same substance, the Mean absorbance at 405 nm (absorbance at 405 nm) [13] was 0.653, the Mean absorbance at 405 nm (absorbance at 405 nm) [14] was 0.101 and the Mean absorbance at 405 nm (absorbance at 405 nm) [15] was 0.484. For the same substance, the Mean absorbance at 405 nm (absorbance at 405 nm) [16] was 0.726, the Mean absorbance at 405 nm (absorbance at 405 nm) [17] was 0.365 and the Mean absorbance at 405 nm (absorbance at 405 nm) [18] was 0.657. For the same substance, the Mean absorbance at 405 nm (absorbance at 405 nm) [19] was 0.833, the Mean absorbance at 405 nm (absorbance at 405 nm) [20] was 0.03 and the Mean absorbance at 405 nm (absorbance at 405 nm) [21] was 0.653. The Mean absorbance at 405 nm (absorbance at 405 nm) [22] was 1.01 and the Mean absorbance at 405 nm (absorbance at 405 nm) [23] was 0.101.
